This passage reports Km results from paper PMC9961625, “Anti-Trypanosoma cruzi Properties of Sesquiterpene Lactones Isolated from Stevia spp.: In Vitro and In Silico Studies” (Pharmaceutics, 2023).

The test system of the data set is Cc1cc(=O)oc2cc(NC(=O)[C@@H]3CCCN3C(=O)CNC(=O)OCc3ccccc3)ccc12. Nature of the data set: purified protein.

One may read the Km as the substrate concentration at which the rate is half of its maximum. Take “prolyl oligopeptidase of 80 kDa (Tc80) (Trypanosoma cruzi)”: the Michaelis-Menten constant (Km) is 5.9 µM.
